Experimental data from patent US20230310629A1 (Merck KGaA, published 2023).

Target: T1, MUC1 on WISH cells (human, UniProt P15941 24-1255)
T1 construct: whole, on cells; WISH cells also carry low levels of EGFR; also called MUC1-expressing cells (WISH)
Assay: cell binding on WISH cells

B1: 1993-H02 with an HT186-D11 light chain (anti-MUC1 antibody H02) (antibody, V domains shown)
VH: QMQLVQSEAELKKPGASVKVSCKASGYSFTSHFMHWVRQAPGQGLEWMGWIDPVTGGTKYAQNFQGWVTMTRDTSIRTAYLELSRLRSDDTAMYYCAREARADRGQFDKWGQGTLVTVAS
VL: QSVLTQPPSVSVAPGKTARITCGGNNIGSKSVHWYQQKPGQAPALVIYYGSNRPSGIPERFSGSNSGNTATLTISRVEAGDEADYYCQVWDSSSDWVFGGGTKLTVL
notes: One molecule is used here for both experiments
Kd: 23.9 nM
